Data from paper PMC10539301.

Target: ATAD2 Walker B mutant (E532Q), aa 403-1390 (human) (UniProt Q6PL18)
Sequence (Q6PL18 403-1390 E532Q): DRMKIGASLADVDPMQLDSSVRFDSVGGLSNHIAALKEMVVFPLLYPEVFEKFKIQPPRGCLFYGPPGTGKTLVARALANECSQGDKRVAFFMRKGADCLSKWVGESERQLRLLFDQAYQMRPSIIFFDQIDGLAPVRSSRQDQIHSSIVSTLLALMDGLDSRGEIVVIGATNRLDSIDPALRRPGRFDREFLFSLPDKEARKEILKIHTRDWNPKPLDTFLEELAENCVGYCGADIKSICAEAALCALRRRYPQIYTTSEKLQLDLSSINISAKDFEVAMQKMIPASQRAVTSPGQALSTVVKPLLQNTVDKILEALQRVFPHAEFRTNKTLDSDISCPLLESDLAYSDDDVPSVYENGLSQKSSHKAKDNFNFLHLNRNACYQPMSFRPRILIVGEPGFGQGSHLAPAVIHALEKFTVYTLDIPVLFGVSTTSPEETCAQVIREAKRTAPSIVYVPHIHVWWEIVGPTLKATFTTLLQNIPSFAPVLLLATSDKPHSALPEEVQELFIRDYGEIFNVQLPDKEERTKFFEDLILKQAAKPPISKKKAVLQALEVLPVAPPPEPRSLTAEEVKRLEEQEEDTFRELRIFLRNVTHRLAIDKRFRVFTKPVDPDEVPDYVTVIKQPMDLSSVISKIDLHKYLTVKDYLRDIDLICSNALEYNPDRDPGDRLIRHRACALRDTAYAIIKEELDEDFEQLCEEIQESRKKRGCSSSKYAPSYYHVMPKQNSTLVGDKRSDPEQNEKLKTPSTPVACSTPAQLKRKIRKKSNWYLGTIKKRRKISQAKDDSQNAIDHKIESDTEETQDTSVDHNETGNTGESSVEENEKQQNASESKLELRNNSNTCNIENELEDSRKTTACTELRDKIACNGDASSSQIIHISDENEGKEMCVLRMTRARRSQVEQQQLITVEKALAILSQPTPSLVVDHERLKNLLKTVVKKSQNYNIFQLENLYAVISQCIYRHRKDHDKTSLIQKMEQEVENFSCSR

HS-AFM: increase of the frequency of symmetry breaking of the ATAD2 Walker B hexameric ring (events per ring or per cumulative observation time) with H3/H4: 40%
HS-AFM: reversibility of symmetry breaking of the ATAD2 Walker B hexameric ring, without and with H3/H4: 30%
Substance: Histone H3/H4 complex (X. laevis, wild type, refolded) (from UniProt P84233 1-136; P62799 1-103)
